This data set deals with the molecule itself. Put plainly: crystal structure; hanging drop, room temperature; 50 mM sodium citrate pH 5.3, 1.7 M (NH4)2SO4 for PCNA-D17K; 50 mM sodium citrate pH 5.6, 2 M (NH4)2SO4 for PCNA-D21K; molecular replacement with wild-type PCNA (PDB 4YHR).

B1: PCNA-D17K (recombinant, crystallised) (natural protein, S. cerevisiae)
chain: MLEAKFEEASLFKRIIKGFKDCVQLVNFQCKEDGIIAQAVDDSRVLLVSLEIGVEAFQEYRCDHPVTLGMDLTSLSKILRCGNNTDTLTLIADNTPDSIILLFEDTKKDRIAEYSLKLMDIDADFLKIEELQYDSTLSLPSSEFSKIVRDLSQLSDSINIMITKETIKFVADGDIGSGSVIIKPFVDMEHPETSIKLEMDQPVDLTFGAKYLLDIIKGSSLSDRVGIRLSSEAPALFQFDLKSGFLQFFLAPKFNDEE
notes: PCNA (POL30), S. cerevisiae, with D17K; modified pET-28 vector with an N-terminal 6-His tag and a PreScission Protease cleavage site; also called PCNA mutant D17K
As to B1, the binding result is given as “binds”.

B2: PCNA-D21K (recombinant, crystallised) (natural protein, S. cerevisiae)
chain: MLEAKFEEASLFKRIIDGFKKCVQLVNFQCKEDGIIAQAVDDSRVLLVSLEIGVEAFQEYRCDHPVTLGMDLTSLSKILRCGNNTDTLTLIADNTPDSIILLFEDTKKDRIAEYSLKLMDIDADFLKIEELQYDSTLSLPSSEFSKIVRDLSQLSDSINIMITKETIKFVADGDIGSGSVIIKPFVDMEHPETSIKLEMDQPVDLTFGAKYLLDIIKGSSLSDRVGIRLSSEAPALFQFDLKSGFLQFFLAPKFNDEE
notes: PCNA (POL30), S. cerevisiae, with D21K; modified pET-28 vector with an N-terminal 6-His tag and a PreScission Protease cleavage site; also called PCNA mutant D21K
B2: the binding result was “binds”.

The record behind these values is PMC6648347, “Effective mismatch repair depends on timely control of PCNA retention on DNA by the Elg1 complex” (Nucleic Acids Research, 2019).
